Laboratory results taken from patent publication KR20220059924A (dated 2022).

Legend:
개 Tie2 단백질 = molecular target: T1, 개 Tie2 단백질 (dog, UniProt A0A8I3S0B4 27-1128); test: flow cytometry, HEK293T cells transfected with dog Tie2
T1 construct: whole, on cells; also called dog Tie2

마우스 Tie2 단백질 = molecular target: T2, 마우스 Tie2 단백질 (mouse, UniProt Q02858 23-1122); test: flow cytometry, HEK293T cells transfected with mouse Tie2
T2 construct: whole, on cells; also called mouse Tie2

랫 Tie2 단백질 = molecular target: T3, 랫 Tie2 단백질 (rat, UniProt A0ABK0L6J5 19-1116); test: flow cytometry, HEK293T cells transfected with rat Tie2
T3 construct: whole, on cells; also called rat Tie2

Measured: binding result

T2 sequence (Q02858 23-1122): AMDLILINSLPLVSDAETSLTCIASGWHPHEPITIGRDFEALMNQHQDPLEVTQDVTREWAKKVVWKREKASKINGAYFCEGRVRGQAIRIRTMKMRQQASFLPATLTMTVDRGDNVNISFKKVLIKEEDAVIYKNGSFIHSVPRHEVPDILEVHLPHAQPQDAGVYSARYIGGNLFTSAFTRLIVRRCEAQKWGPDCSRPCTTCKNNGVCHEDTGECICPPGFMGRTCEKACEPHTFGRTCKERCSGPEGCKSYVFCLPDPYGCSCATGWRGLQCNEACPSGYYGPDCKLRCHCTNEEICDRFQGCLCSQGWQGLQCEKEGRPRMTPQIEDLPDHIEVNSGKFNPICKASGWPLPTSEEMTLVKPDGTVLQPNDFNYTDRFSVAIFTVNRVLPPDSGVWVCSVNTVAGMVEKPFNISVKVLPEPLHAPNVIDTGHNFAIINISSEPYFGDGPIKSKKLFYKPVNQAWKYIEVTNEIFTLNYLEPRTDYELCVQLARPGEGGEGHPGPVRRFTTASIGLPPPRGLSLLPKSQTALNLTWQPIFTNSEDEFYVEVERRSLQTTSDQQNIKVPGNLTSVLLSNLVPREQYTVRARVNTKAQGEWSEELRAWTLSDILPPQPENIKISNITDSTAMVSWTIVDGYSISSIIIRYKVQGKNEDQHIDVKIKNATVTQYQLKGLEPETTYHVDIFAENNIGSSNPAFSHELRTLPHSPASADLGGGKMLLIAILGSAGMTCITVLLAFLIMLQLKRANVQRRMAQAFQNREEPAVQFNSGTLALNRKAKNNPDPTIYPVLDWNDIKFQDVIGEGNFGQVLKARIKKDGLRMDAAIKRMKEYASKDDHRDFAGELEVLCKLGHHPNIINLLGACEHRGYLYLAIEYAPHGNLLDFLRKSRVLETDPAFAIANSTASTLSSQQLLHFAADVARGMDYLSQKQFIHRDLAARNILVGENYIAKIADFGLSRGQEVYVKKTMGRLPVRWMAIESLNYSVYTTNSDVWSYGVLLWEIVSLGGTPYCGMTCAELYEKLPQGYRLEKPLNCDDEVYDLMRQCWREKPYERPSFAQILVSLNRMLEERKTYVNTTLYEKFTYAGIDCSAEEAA

B1: Ang1mab2-1 (antibody, human IgG1, kappa, V domains shown)
VH: QVQLVESGGGVVQPGRSLRLSCAASGFTFSSYAMHWVRQAPGKGLEWVAVISYDGSNKYYADSVKGRFTISRDNSKNTLYLQMNSLRAEDTAVYYCARQYSGVFEYWGQGTLITVSS
VL: DIQMTQSPDSLAVSLGERATINCKSSQSVLYRSNNRNYLAWYQQKLGQPPQLLIYWASTRESGVPDRFSGSGSGADFTLTISSLQAEDVAVYYCQQYFSIPYTFGQGTKLEIKR
notes: also called 제2 기본 항체
no binding (tested: 5ug/ml): all assays above
